Test results from patent US7833979B2, “Toxin peptide therapeutic agents” (Amgen Inc., priority 2005, dated 2010).

Assays:
[1] = target: T1, Kv1.3 (Homo sapiens, UniProt P22001); assay: IonWorks Quattro automated (population patch clamp) electrophysiology on CHO-Kv1.3 cells; format: cell-based; set-up: expressed in transfected cells; conditions: IonWorks planar patch clamp, average IC50, read-out: Kv1.3 IC50 by IWQ
Procedure: Assay Plate preparation for electrophysiology. […] Before experiments, each sample was thawed at room temperature and an aliquot (70 to 80 μl) was transferred to a well in a 96-well polypropylene plate. In order to prepare the Assay Plate, several dilutions were made from the pharmacokinetic serum samples to give rise to Test Solutions. Dilutions of serum samples from the pharmacokinetic study were into 10% Phosphate Buffered Saline (PBS, with Ca^2+ and Mg^2+). […] Standard inhibition curves were also prepared in the Assay Plate.
Cell preparation for electrophysiology. CHO cells stably expressing the voltage-activated K^+ channel, Kv1.3 were plated in T-175 tissue culture flasks (at a density of 5×10^6) 2 days before experimentation and allowed to grow to around 95% confluence. […] The mean K^+ current amplitude was measured between 430 and 440 ms and the data were exported to a Microsoft Excel spreadsheet. The amplitude of the K^+ current in the presence of each concentration of the Test Solution or Standard was expressed as a percentage of the K^+ current in control conditions in the same well.
Standard inhibition curves were generated for each standard in various levels of rat serum and expressed as current percent of control (POC) versus log of nM concentration. […]

[2] = target: T1, Kv1.3; assay: Whole cell patch clamp electrophysiology on HEK293 cells stably expressing human Kv1.3; format: cell-based
[3] = tested on: IL-2 and IFNg production from PMA and anti-CD3 stimulated human PBMCs; assay: Inhibition of T cell cytokine production following PMA and anti-CD3 antibody stimulation of PBMCs; format: cell-based; conditions: 48 hr
Text: Inhibition of T cell cytokine production following PMA and anti-CD3 antibody stimulation of PBMCs. PBMC's were previously isolated from normal human donor Leukophoresis packs, purified by density gradient centrifugation (Ficoll Hypaque), cryopreserved in CPZ Cryopreservation Medium Complete (INCELL, MCPZF-100 plus 10% DMSO final). PBMC's were thawed (95% viability), washed, and seeded at 2×10^5 cells per well in culture medium (RPMI medium 1640; GIBCO) supplemented with 10% fetal calf serum, 100 U/ml penicillin, […] streptomycin 2 mM L-glutamine, 100 uM non-essential amino acids, and 20 uM 2-ME) in 96-well flat-bottom tissue culture plates. Cells were pre-incubated with serially diluted (100 nM-0.001 nM final) ShK[1-35], Fc-L10-ShK[1-35] or fc control for 90 min before stimulating for 48 hr with PMA/anti-CD3 (1 ng/ml and 50 ng/ml, respectively) in a final assay volume of 200 ul. Analysis of the assay samples was performed using the Meso Scale Discovery (MSD) SECTOR™ Imager 6000 (Meso Scale Discovery, Gaithersbury, Md.) to measure the IL-2 and IFNg protein levels by utilizing electrochemiluminescence (ECL). […] For each well, 20 ul of Ruthenium-labeled detection antibodies (1 ug/ml final in Antibody Dilution Buffer; […], TNF, IFNγ) and 130 ul of 2×MSD Read Buffer added, final volume 150 ul. […] The plates were then read on the SECTOR™ Imager 6000. […]

[4] = target: fixed HEK 293 cells overexpressing Kv1.3 (Homo sapiens, UniProt P22001); conditions: whole cell immunoassay
Procedure: Parent HEK 293 cells or HEK Kv1.3 cells were plated at 3×10e4 cells/well in poly-D-Lysine coated ninety-six well plates (#35-4461; Becton-Dickinson, Bedford, Mass.). Cells were fixed with formalin (Sigma HT50-1-1 Formalin solution, diluted 1:1 with PBS/0.5% BSA before use) by removing cell growth medium, adding 0.2 ml/well formalin solution and incubating at room temperature for 25 minutes and then washing one time with 100 ul/well of PBS/0.5% BSA. Wells were blocked by addition of 0.3 ml/well of BSA blocker (50-61-00; KPL 10% BSA Diluent/Blocking Solution, diluted 1:1 with PBS; KPL, Gaithersburg, Md.) followed by incubation at room temperature, with shaking, for 3 hr. Plates were washed 2 times with 1×KP Wash Buffer (50-63-00; KPL). Samples were diluted in Dilution Buffer (PBS/0.5% Tween-20) or Dilution Buffer with 1% Male Lewis Rat Serum (RATSRM-M; Bioreclamation Inc., Hicksville, N.Y.) and 0.1 ml/well was added to blocked plates, incubating for 1 hr at room temperature with shaking. […] Absorbance was read at 450 nm on a Molecular Devices SpectroMax 340 (Sunnyvale, Calif.).
Whole cell immunoassay was performed as above with the following modifications. […] Absorbances were read at 405 nm after stopping reactions by addition of 0.1 ml/well of 1% SDS.

[5] = tested on: upregulation of CD40L and IL-2R on CD4+ T cells in human whole blood; assay: Ex vivo human whole blood assay, thapsigargin-induced cell surface CD40L and IL-2R on T cells (FACS); format: cell-based; conditions: 24 hours
[6] = tested on: IL-2 and IFNg production from anti-CD3 and anti-CD28 stimulated human PBMCs; assay: Inhibition of T cell cytokine production following anti-CD3 and anti-CD28 antibody stimulation of PBMCs; format: cell-based; conditions: 48 hours
Procedure: Inhibition of T cell cytokine production following Anti-CD3 and anti-CD28 antibody stimulation of PBMCs. PBMCs were previously isolated from normal human donor Leukopheresis packs, purified by density gradient centrifugation (Ficoll Hypaque), and cryopreserved using INCELL Freezing Medium. PBMCs were thawed (95% viability), washed, and seeded (in RPMI complete medium containing serum replacement, PSG) at 2×10^5 cells per well into 96-well flat bottom plates. Cells were pre-incubated with serially diluted (100 nM-0.003 nM final) ShK[1-35], Fc-L10-ShK[1-35], or Fc control for 1 hour before the addition of aCD3 and aCD28 (2.5 ng/mL and 100 ng/mL respectively) in a final assay volume of […]. Supernatants were collected after 48 hours, and analyzed using the Meso Scale Discovery (MSD) SECTOR™ Imager 6000 (Meso Scale Discovery, Gaithersbury, Md.) to measure the IL-2 and IFNg protein levels by utilizing electrochemiluminescence (ECL). […] of supernatant was added to the MSD multi-spot 96-well plates (each well containing IL-2, TNFa, and IFNg capture antibodies). The plates were sealed and incubated at room temperature on a plate shaker for 1 hour. Then […] of Ruthenium-labeled detection antibodies (1 ug/ml final of IL-2, TNFα, and IFNγ in Antibody Dilution Buffer) and […] of 2×MSD Read Buffer were added. The plates were sealed, covered with tin foil, and incubated at room temperature on a plate shaker for 1 hour. The plates were then read on the SECTOR™ Imager 6000. […] (POC=Percent Of Control of response in the absence of inhibitor).

[7] = tested on: T cell proliferation in human PBMCs; assay: Inhibition of T cell proliferation (3H-thymidine incorporation) following anti-CD3 and anti-CD28 stimulation of PBMCs; format: cell-based; conditions: pre-incubation with anti-human CD32 blocking antibody
Text: Inhibition of T cell proliferation following anti-CD3 and anti-CD28 antibody stimulation of PBMCs. PBMC's were previously isolated from normal human donor Leukophoresis packs, purified by density gradient centrifugation (Ficoll Hypaque), cryopreserved in CPZ Cryopreservation Medium Complete (INCELL, MCPZF-100 plus 10% DMSO final). PBMC's were thawed (95% viability), washed, and seeded at 2×10^5 cells per well in culture medium (RPMI medium 1640; GIBCO) supplemented with 10% fetal calf serum, 100 U/ml penicillin, […] streptomycin, 2 mM L-glutamine, 100 μM non-essential amino acids, and 20 μM 2-ME) in 96-well flat-bottom tissue culture plates. Cells were pre-incubated with either anti-human CD32 (FcyRII) blocking antibody (per manufacturers instructions EASY SEP Human Biotin Selection Kit #18553, StemCell Technologies Vancouver, BC) or Fc-L10-ShK (100 nM-0.001 nM final) for 45 min. Fc-L10-ShK (100 nM-0.001 nM final) was then added to the cells containing anti-human CD32 blocking antibody while medium was added to the cells containing Fc-L10-ShK. Both sets were incubated for an additional 45 min before stimulating for 48 hr with aCD3/aCD28 (0.2 ng/ml and 100 ng/ml, respectively). Final assay volume was 200 ul. […] Cells were then harvested onto glass fiber filters and radioactivity was measured in a B-scintillation counter.

[8] = target: HEK 293 cells overexpressing human Kv1.3 (Homo sapiens, UniProt P22001); assay: Immunohistochemistry analysis of binding to HEK 293 cells overexpressing human Kv1.3; conditions: 5 ug/ml, fixed cells, confocal microscopy
Procedure: HEK 293 cells overexpressing human Kv1.3 (HEK Kv1.3) were obtained from BioFocus plc (Cambridge, UK) and maintained per manufacturer's recommendation. The parental HEK 293 cell line was used as a control. Cells were plated on Poly-D-Lysine 24 well plates (#35-4414; Becton-Dickinson, Bedford, Mass.) and allowed to grow to approximately 70% confluence. HEK KV1.3 were plated at 0.5×10e5 cells/well in 1 ml/well of medium. HEK 293 cells were plated at a density of 1.5×10e5 cells/well in 1 ml/well of medium. […] Cells were stained by incubating with 0.2 ml/well of 5 ug/ml Fc-L10-ShK[1-35] in PBS/BSA for 30′ at room temperature. Fc-L10-ShK[1-35] was aspirated and then the cells were washed one time with PBS/0.5% BSA. Detection antibody (Goat F(ab)2 anti-human IgG-phycoerythrin; Southern Biotech Associates, Birmingham, Ala.) was added to the wells at 5 ug/ml in PBS/0.5% BSA and incubated for 30′ at room temperature. Wash cells once with PBS/0.5% BSA and examine using confocal microscopy (LSM 510 Meta Confocal Microscope; Carl Zeiss AG, Germany). […] In disease settings where activated T effector memory cells have been reported to overproduce Kv1.3, this reagent can find utility in both targeting these cells and in their detection.

T1 sequence (P22001 whole entry): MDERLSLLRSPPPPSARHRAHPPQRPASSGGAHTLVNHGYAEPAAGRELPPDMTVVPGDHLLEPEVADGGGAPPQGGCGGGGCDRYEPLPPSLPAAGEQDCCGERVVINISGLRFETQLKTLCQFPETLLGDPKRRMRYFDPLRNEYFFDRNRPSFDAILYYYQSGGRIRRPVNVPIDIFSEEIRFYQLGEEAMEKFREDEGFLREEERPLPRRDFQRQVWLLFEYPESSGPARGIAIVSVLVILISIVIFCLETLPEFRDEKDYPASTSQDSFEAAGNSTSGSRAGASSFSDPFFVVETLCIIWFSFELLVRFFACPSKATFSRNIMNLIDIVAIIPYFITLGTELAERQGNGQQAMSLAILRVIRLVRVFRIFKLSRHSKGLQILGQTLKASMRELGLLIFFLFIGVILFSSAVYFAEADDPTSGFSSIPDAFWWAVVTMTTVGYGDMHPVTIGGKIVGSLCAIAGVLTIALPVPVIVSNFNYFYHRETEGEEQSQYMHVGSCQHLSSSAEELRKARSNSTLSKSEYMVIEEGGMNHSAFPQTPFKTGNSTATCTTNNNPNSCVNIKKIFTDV
Sequence of HEK 293 cells overexpressing human Kv1.3 (P22001 whole entry): as above
Sequence of fixed HEK 293 cells overexpressing Kv1.3 (P22001 whole entry): as above

| Substance | IC50 [1] | IC50 ([2]; HEK293 cells stably expressing human Kv1.3, mean±s.e.m., estimated, read-out: IC50, block of outward potassium current) | Blockade of human Kv1.3 current (in words) ([2]; patch clamp electrophysiology) | Inhibition of IFNγ production [3] | Inhibition of IL-2 production [3] | Binding response on fixed HEK 293 cells overexpressing Kv1.3 [4] | Binding response on untransfected HEK 293 cells [4] | Thapsigargin-induced upregulation of CD40L on T cells in human whole blood [5] | Thapsigargin-induced upregulation of the IL-2R on T cells in human whole blood [5] | Inhibition of IFNg production [6] | Inhibition of IL-2 production [6] | Effect of pre-blocking with anti-CD32 (FcR) blocking antibody on inhibition of T cell proliferation [7] | Binding (staining) to Kv1.3 overexpressing HEK 293 cells [8] | Binding (staining) to untransfected HEK 293 cells [8] |
| --- | --- | --- | --- | --- | --- | --- | --- | --- | --- | --- | --- | --- | --- | --- |
| E. coli-derived ShK[2-35]-L-Fc | 4.9 nM | – | – | – | – | – | – | – | – | – | – | – | – | – |
| Fc-L10-ShK[1-35]: Fc region of human IgG1 fused in-frame via L10 linker to Kv1.3 inhibitor peptide ShK[1-35]; SEQ ID NO: 78 | – | 0.015 ± 0.002 nM | potently blocked human Kv1.3 | potently inhibits IL-2 and IFNg production | potently inhibits IL-2 and IFNg production | dose-dependent increase in the peptibody binding | does not elicit a response from untransfected HEK 293 cells | suppressed | suppressed | nearly complete | nearly complete | little effect | binds to Kv1.3 overexpressing HEK 293 cells | little binding to untransfected cells |
